# T1: MtbTOP1-704t (Mycobacterium tuberculosis, UniProt P9WG49 2-704)
# T1 sequence: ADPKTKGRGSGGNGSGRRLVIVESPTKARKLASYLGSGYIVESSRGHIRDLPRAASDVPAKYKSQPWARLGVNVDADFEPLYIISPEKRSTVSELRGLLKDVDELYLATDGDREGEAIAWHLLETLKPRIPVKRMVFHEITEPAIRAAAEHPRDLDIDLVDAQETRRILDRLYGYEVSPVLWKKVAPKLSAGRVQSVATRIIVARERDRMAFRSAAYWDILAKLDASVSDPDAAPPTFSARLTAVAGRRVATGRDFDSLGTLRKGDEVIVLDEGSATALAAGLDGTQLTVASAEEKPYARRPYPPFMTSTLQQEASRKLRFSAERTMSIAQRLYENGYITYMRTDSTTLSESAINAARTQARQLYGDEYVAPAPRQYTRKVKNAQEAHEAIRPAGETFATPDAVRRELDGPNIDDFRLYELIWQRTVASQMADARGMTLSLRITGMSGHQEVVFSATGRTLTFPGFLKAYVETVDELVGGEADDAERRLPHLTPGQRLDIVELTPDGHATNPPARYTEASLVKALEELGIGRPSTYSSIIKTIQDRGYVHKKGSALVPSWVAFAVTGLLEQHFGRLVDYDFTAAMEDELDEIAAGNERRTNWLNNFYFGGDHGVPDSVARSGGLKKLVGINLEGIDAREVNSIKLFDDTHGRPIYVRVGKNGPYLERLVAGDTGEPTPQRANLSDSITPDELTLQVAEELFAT
# Target: T1, MtbTOP1-704t
# Experiment: X-ray crystallography; no metal at active site; 2.42 A
# Settings: protein: recombinant; tags: His6-Mocr removed by TEV; N-terminal SNA remains; single strand
binder,measurement,value
TTCCGCTTGAC (ssDNA) [MTS2-11],binding result,binds

# From publication PMC6101483, “Investigating mycobacterial topoisomerase I mechanism from the analysis of metal and DNA substrate interactions at the active site”
